Data: patent publication US20090305241, “DNA demethylases and uses thereof” (REGENTS OF THE UNIVERSITY OF CALIFORNIA, published 2009)

How the values were obtained:
DME K1286Q (MBP-Δ537DME) = molecular target: T1, DME K1286Q (MBP-Δ537DME) (UniProt Q8LK56 SEQ:538-1729, K1286Q); test: no trapping or lyase activity detected (catalytic mutant); settings: tags: N-terminal MBP; label: 5'-32P top strand
T1 sequence: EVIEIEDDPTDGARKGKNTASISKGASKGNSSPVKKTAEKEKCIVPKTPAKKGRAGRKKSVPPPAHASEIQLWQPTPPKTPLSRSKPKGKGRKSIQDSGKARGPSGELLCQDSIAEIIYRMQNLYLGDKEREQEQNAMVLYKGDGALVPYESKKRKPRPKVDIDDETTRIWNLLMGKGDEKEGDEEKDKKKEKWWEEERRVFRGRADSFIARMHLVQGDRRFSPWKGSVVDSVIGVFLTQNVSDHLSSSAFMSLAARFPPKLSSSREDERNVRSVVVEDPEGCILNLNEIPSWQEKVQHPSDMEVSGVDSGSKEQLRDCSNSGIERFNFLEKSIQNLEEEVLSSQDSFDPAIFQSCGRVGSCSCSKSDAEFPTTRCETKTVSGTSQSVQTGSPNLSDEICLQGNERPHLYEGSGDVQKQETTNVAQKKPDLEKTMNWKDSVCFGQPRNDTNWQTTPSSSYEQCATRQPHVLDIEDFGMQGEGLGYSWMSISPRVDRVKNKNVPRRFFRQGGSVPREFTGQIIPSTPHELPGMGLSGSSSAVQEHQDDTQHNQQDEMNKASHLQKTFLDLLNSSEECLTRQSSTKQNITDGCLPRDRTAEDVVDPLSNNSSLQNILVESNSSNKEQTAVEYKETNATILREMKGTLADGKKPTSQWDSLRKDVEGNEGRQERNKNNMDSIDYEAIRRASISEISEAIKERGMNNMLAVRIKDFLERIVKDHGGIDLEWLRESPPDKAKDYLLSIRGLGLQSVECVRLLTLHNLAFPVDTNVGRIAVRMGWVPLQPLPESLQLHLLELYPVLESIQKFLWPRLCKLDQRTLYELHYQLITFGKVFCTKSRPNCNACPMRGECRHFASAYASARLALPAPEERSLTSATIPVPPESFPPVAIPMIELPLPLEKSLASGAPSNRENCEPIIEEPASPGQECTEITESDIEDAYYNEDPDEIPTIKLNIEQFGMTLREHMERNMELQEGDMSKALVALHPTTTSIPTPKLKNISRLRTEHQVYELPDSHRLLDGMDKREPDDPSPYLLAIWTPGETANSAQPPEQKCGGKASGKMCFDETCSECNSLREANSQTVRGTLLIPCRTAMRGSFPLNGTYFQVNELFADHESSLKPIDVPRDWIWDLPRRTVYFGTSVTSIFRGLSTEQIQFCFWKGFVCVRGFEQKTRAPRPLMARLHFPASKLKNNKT
Method: (§1) 5′-labeled oligonucleotide substrates (13.3 nM) were incubated with DME protein (250 nM) in a 15 μl reaction with 40 mM HEPES-KOH (pH 8.0), 0.1 M KCl, 0.1 mM EDTA, 0.5 mM dithiothreitol, and 200 μg/mL BSA at 37° for 1 hr. The reaction was terminated with 15 μl of 95% formamide, 20 mM EDTA, 0.05% bromophenol blue, 0.05% xylene cyanol FF and boiled for 5 min. To induce […], NaOH was added at a final concentration of 0.1 M and the reaction was boiled for 7 min. Products were fractionated on a 15% polyacrylamide gel containing 7.5 M urea and 1×TBE. Electrophoresis was done at 1000V for 4 hrs with a Hoefer SQ3 gel apparatus. The gel was exposed to Kodak BioMax MR film at −80°. Methods for purification of recombinant DME, oligonucleotide substrates, NaBH₄ trapping, and toxicity in E. coli are in the Supplemental Experimental Procedures.
(§2) 5′-labeled oligonucleotide substrates (13.3 nM) were incubated with DME protein (250 nM) in a 15 μl reaction with 40 mM HEPES-KOH (pH 8.0), 0.1 M KCl, 0.1 mM EDTA, 0.5 mM dithiothreitol, and 200 μg/mL BSA at 37°. After 1 hr of incubation, 1 M NaBH₄ was added to a final concentration of 100 mM and the reaction tubes were placed at 37° for an additional 10 min. An equal volume of 2×SDS-PAGE loading buffer (90 mM Tris-HCl, pH 6.8, 20% glycerol, 2% SDS, 0.02% bromophenol blue, 100 mM dithiothreitol) was added to terminate the trapping reaction. […]

DME D1304N (MBP-Δ537DME) = molecular target: T2, DME D1304N (MBP-Δ537DME) (UniProt Q8LK56 SEQ:538-1729, D1304N); test: as above; settings: tags: N-terminal MBP (pMAL-c2x); label: 5'-32P top strand
T2 sequence: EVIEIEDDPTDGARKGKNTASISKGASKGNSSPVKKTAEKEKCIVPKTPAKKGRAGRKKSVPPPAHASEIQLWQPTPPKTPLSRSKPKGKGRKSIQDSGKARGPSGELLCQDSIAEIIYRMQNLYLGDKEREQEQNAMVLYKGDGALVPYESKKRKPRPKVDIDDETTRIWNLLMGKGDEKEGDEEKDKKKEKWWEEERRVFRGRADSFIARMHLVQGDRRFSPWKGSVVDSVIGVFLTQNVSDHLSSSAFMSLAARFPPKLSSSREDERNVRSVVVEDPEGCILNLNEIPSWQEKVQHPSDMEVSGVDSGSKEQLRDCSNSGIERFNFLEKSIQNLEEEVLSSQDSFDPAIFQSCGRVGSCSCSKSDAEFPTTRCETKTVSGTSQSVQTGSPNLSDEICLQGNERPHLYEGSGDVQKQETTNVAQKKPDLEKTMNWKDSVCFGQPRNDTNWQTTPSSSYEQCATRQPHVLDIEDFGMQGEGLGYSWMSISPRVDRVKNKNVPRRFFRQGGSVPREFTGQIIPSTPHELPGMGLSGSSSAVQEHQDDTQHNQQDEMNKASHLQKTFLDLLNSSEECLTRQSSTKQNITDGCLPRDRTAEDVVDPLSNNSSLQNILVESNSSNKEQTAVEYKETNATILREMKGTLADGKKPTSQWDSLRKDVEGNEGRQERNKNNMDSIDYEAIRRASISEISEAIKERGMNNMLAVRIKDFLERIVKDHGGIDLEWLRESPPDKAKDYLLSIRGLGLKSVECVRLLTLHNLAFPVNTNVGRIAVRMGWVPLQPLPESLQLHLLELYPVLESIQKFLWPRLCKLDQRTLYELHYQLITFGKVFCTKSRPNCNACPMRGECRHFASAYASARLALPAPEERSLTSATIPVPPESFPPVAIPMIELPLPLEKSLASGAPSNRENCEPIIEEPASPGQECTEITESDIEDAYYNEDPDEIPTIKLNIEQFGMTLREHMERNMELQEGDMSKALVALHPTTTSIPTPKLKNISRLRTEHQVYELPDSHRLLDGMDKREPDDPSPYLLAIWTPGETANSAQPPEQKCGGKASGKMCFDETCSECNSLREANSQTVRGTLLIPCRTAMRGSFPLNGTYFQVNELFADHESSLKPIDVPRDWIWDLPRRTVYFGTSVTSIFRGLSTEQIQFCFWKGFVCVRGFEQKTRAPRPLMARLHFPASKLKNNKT
Method: as §1, §2

[1] = molecular target: T3, DME (MBP-Δ537DME, wild-type glycosylase domain) (UniProt Q8LK56 SEQ:538-1729); test: NaBH4-trapped covalent complex (~200 kd); 40 mM HEPES-KOH pH 8.0, 0.1 M KCl, 37 C; settings: tags: N-terminal MBP (pMAL-c2x), expressed in E. coli Rosetta; label: 5'-32P top strand
T3 chain: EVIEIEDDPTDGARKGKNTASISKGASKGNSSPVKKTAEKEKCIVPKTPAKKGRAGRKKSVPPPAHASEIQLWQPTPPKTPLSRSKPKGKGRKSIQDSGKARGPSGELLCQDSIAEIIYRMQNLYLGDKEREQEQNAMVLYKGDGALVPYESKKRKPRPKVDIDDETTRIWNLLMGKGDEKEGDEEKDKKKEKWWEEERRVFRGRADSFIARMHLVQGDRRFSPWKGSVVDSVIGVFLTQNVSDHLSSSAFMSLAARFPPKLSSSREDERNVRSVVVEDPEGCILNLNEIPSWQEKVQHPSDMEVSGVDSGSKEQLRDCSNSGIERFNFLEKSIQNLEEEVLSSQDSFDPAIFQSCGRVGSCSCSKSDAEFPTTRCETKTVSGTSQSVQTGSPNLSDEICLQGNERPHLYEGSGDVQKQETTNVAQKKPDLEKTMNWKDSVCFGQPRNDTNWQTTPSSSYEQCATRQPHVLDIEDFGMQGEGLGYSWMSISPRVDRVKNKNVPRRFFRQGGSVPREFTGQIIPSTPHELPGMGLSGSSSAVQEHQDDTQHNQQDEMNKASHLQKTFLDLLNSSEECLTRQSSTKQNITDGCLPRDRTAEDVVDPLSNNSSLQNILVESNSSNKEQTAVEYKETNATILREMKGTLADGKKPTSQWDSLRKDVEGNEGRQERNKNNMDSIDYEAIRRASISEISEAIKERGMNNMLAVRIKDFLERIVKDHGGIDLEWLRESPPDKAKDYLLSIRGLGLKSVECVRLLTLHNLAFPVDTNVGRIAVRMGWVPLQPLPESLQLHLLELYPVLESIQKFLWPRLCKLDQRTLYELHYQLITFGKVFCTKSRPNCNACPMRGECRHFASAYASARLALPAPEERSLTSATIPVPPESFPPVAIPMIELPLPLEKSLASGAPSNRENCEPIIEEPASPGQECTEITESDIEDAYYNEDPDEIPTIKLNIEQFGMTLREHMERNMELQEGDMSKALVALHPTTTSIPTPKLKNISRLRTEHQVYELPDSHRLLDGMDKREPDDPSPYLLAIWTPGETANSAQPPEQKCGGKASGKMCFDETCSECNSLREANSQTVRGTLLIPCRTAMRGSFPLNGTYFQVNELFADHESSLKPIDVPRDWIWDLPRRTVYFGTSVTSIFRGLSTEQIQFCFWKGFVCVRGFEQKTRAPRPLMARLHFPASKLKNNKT
From the text: DME breaks the phosophodiester linkage on the 3′-side of a 5-methylcytosine residue (hemimethylated substrate) and generates end-labeled DNAs that migrate on denaturing polyacrylamide gels at the predicted position for β-elimination products (FIG. 3C). The subsequent cleavage of the phosphodiester linkage on the 5′-side yields δ-elimination products through the same mechanism found in related DNA glycosylases (Bhagwat, M. and Gerlt, J. A., Biochemistry, 35, 659-665 (1996)). Treatment of products with strong base (NaOH) prior to gel electrophoresis confirmed the δ-elimination process at the predicted position (FIG. 3C). […] No lyase activity (FIG. 3E) or covalent trapping (FIG. 3D) was detected when DME was incubated with non-methylated oligonucleotides, or when hemimethylated substrate was incubated with no enzyme or mutant enzymes (D1304N or K1286Q). Plants have 5-methylcytosine in the three sequence contexts; CpG, CpNpG, and CpNpN (Bender, J., Ann Rev Plant Biology, 55, 41-68 (2004)). DME has activity on 5-methylcytosine in each of these sequence contexts (FIG. 3E). We detected no DME activity when single-stranded oligonucleotides with 5-methylcytosine were used in the reaction (data not shown). […]

[2] = molecular target: T3, DME (MBP-Δ537DME, wild-type glycosylase …); test: NaBH4-trapped covalent complex; settings: tags: N-terminal MBP (pMAL-c2x), expressed in E. coli Rosetta; label: 5'-32P top strand; T/G mismatch
Method: 5′-labeled oligonucleotide substrates (13.3 nM) were incubated with DME protein (250 nM) in a 15 μl reaction with 40 mM HEPES-KOH (pH 8.0), 0.1 M KCl, 0.1 mM EDTA, 0.5 mM dithiothreitol, and 200 μg/mL BSA at 37°. After 1 hr of incubation, 1 M NaBH₄ was added to a final concentration of 100 mM and the reaction tubes were placed at 37° for an additional 10 min. An equal volume of 2×SDS-PAGE loading buffer (90 mM Tris-HCl, pH 6.8, 20% glycerol, 2% SDS, 0.02% bromophenol blue, 100 mM dithiothreitol) was added to terminate the trapping reaction. Products were boiled for 10 min before loading onto a 10% SDS-PAGE gel. The wet gel was exposed to Kodak Biomax MS film for 12-18 h at −80°.

B1: hemimethylated meCpG (MEA-1.6F18meC / MEA-1.6R) (dsDNA)
DNA 1: CTATACCTCCTCAACTCCGGTCACCGTCTCCGGCG
DNA 2: CGCCGGAGACGGTGACCGGAGTTGAGGAGGTATAG
modifications: 5mC at position 18 of top strand [top 18 (5mC)]
binding result (DME K1286Q (MBP-Δ537DME)): no binding | binding result (DME D1304N (MBP-Δ537DME)): no binding | binding result [1]: binds

B2: T/G mismatch (MEA-1.6F18T / MEA-1.6R) (dsDNA)
DNA 1: CTATACCTCCTCAACTCTGGTCACCGTCTCCGGCG
DNA 2: CGCCGGAGACGGTGACCGGAGTTGAGGAGGTATAG
binding result [2]: binds
